Laboratory results reported in patent US20020127702, “Methods and compositions for regulating cell cycle progression” (published 2002).

Experiments:
[1] = target: T1, hCdc5 DNA-binding domain (aa 1-500) (Homo sapiens, UniProt Q99459 SEQ:1-500); assay: EMSA; amino terminus of hCdc5; clones 6 and 30 overlap; clone 6 printed as … in table but SEQ 15 given; conditions: tags: His6 fusion (pET29c(+), E. coli BL21(DE3), Ni-NTA); chain copies: forms homodimers by glutaraldehyde cross-linking in vitro
From the text: (§1) To determine whether hCdc5 interacts with specific genomic sequences through direct DNA binding, we first surveyed the 12 genomic sequences (totaling ˜36,200 bp) identified by binding selection in yeast for the synthetic consensus binding sequence identified by cyclic amplification and selection in the example above. An exact match was not found, although this was not surprising as the likelihood of finding a unique 12 bp sequence is 6×10⁻⁸, and is predicted to occur by chance ˜180 times in the human genome. We then used the information obtained by scanning mutagenesis to look for sites containing the core “ANCA” motif flanked by palindromes within the genomic clones. […] Complementary oligonucleotides representing the sequences in Table 2 flanked by the non-random oligo flanking sequences used in the oligonucleotide selection experiments described above were used for the gel shift assays. Two of these active binding sites were found in the two clones which represented overlapping sequences from the same region of the genome (clones 6 and 30). All 3 sites shared features of the consensus binding sequence: a core “ANCA” motif, AT-rich flanking palindromes, and a distance between core and palindromes of no more than 3 bp.

[2] = target: T1, hCdc5 DNA-binding domain (aa 1-500); assay: EMSA; amino terminus of hCdc5; conditions: tags: His6 fusion (pET29c(+), E. coli BL21(DE3), Ni-NTA); chain copies: forms homodimers by glutaraldehyde cross-linking in vitro
From the text: as §1

[3] = target: T1, hCdc5 DNA-binding domain (aa 1-500); assay: EMSA; text: abolished; conditions: tags: His6 fusion (pET29c(+), E. coli BL21(DE3), Ni-NTA); chain copies: forms homodimers by glutaraldehyde cross-linking in vitro; label: 32P
Description: Labeled oligonucleotides bearing substitutions in each of the bases comprising the consensus sequence were incubated with recombinant His₆-hCdc5 and gel shift assays were carried out as described above to determine the binding affinities for the mutated sequences. […] Substitutions at any other position abolished DNA-protein binding implicating these residues as critical for the interaction.

[4] = target: T1, hCdc5 DNA-binding domain (aa 1-500); assay: EMSA; single-stranded sense; conditions: tags: His6 fusion (pET29c(+), E. coli BL21(DE3), Ni-NTA); chain copies: forms homodimers by glutaraldehyde cross-linking in vitro
[5] = target: T1, hCdc5 DNA-binding domain (aa 1-500); assay: EMSA; data not shown; protein construct not specified; conditions: tags: His6 fusion (pET29c(+), E. coli BL21(DE3), Ni-NTA); chain copies: forms homodimers by glutaraldehyde cross-linking in vitro
[6] = target: T1, hCdc5 DNA-binding domain (aa 1-500); assay: EMSA; single-stranded antisense; conditions: tags: His6 fusion (pET29c(+), E. coli BL21(DE3), Ni-NTA); chain copies: forms homodimers by glutaraldehyde cross-linking in vitro
[7] = target: hCdc5 W31G W53G W82G mutant (Homo sapiens, UniProt Q99459 SEQ:1-500, W31G,W53G,W82G); assay: EMSA; data not shown; conditions: label: 32P
[8] = target: T1, hCdc5 DNA-binding domain (aa 1-500); assay: EMSA; 1 nM DNA, 2.5-40 nM protein; 10 mM HEPES pH 7.8, 75 mM KCl, 2.5 mM MgCl2, poly(dI-dC), room temperature; conditions: tags: His6 fusion (pET29c(+), E. coli BL21(DE3), Ni-NTA); chain copies: forms homodimers by glutaraldehyde cross-linking in vitro; label: 32P

T1 sequence (Q99459 1-500): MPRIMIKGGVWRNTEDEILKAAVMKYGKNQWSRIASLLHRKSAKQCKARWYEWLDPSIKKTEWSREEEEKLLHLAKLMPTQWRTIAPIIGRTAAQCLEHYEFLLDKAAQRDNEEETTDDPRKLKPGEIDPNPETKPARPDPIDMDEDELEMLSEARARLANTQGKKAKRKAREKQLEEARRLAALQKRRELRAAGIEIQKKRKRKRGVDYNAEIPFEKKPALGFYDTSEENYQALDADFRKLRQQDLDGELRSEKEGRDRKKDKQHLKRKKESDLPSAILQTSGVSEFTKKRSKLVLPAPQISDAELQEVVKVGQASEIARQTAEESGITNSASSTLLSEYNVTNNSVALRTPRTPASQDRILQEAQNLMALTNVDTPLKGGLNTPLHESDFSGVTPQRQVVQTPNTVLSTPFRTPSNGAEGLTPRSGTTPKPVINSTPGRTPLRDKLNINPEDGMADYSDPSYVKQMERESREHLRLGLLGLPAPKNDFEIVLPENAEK
Sequence of hCdc5 W31G W53G W82G mutant (Q99459 1-500 W31G/W53G/W82G): as the sequence (Q99459 1-500) above, with W31G, W53G, W82G counted along it

B1: genomic clone 6/30 site (dsDNA)
DNA 1: CGCTCGAGGGATCCGAATTCAATAAAATCAAAATTTCTAGAAAGCTTGTCGACGC
DNA 2: GCGTCGACAAGCTTTCTAGAAATTTTGATTTTATTGAATTCGGATCCCTCGAGCG
binding result [1]: binds

B2: genomic clone 8 site (dsDNA)
DNA 1: CGCTCGAGGGATCCGAATTCAATGAACGAATCAAATTTCTAGAAAGCTTGTCGACGC
DNA 2: GCGTCGACAAGCTTTCTAGAAATTTGATTCGTTCATTGAATTCGGATCCCTCGAGCG
binding result [2]: no binding

B3: genomic clone 12 site 1 (dsDNA)
DNA 1: CGCTCGAGGGATCCGAATTCAAAGGGGAACACTTTTCTAGAAAGCTTGTCGACGC
DNA 2: GCGTCGACAAGCTTTCTAGAAAAGTGTTCCCCTTTGAATTCGGATCCCTCGAGCG
binding result [2]: binds

B4: consensus mutant position 8 (dsDNA)
DNA 1: GATTTAATATAA
DNA 2: TTATATTAAATC
binding signal [3]: 0.2 fraction of control

B5: genomic clone 12 site 2 (dsDNA)
DNA 1: CGCTCGAGGGATCCGAATTCCCCCCCTTTAAACCAGCGTGGAGGGGGGTCTAGAAAGCTTGTCGACGC
DNA 2: GCGTCGACAAGCTTTCTAGACCCCCCTCCACGCTGGTTTAAAGGGGGGGAATTCGGATCCCTCGAGCG
binding result [2]: no binding

B6: consensus site single-stranded sense (ssDNA)
DNA: GATTTAACATAA
binding result [4]: no binding

B7: consensus mutant position 3 (dsDNA)
DNA 1: GAGTTAACATAA
DNA 2: TTATGTTAACTC
binding signal [3]: 0.2 fraction of control

B8: new-palindrome mutant GATATAACATAT (dsDNA)
DNA 1: GATATAACATAT
DNA 2: ATATGTTATATC
binding result [5]: no binding

B9: consensus mutant position 9 (dsDNA)
DNA 1: GATTTAACCTAA
DNA 2: TTAGGTTAAATC
binding signal [3]: 0.2 fraction of control

B10: new-palindrome mutant GATGTAACATAC (dsDNA)
DNA 1: GATGTAACATAC
DNA 2: GTATGTTACATC
binding result [5]: no binding

B11: consensus mutant position 11 (dsDNA)
DNA 1: GATTTAACATCA
DNA 2: TGATGTTAAATC
binding signal [3]: 0.2 fraction of control

B12: consensus site single-stranded antisense (ssDNA)
DNA: TTATGTTAAATC
modifications: [NONE]
binding result [6]: no binding

B13: hCdc5 consensus site (dsDNA)
DNA 1: GATTTAACATAA
DNA 2: TTATGTTAAATC
binding result [7]: no binding | Kd [8]: ~10 nM

B14: consensus mutant position 4 (dsDNA)
DNA 1: GATGTAACATAA
DNA 2: TTATGTTACATC
binding signal [3]: 0.2 fraction of control

B15: genomic clone 25 site (dsDNA)
DNA 1: CGCTCGAGGGATCCGAATTCAATTCCCCGGATCATTGCAAACAATTTCTAGAAAGCTTGTCGACGC
DNA 2: GCGTCGACAAGCTTTCTAGAAATTGTTTGCAATGATCCGGGGAATTGAATTCGGATCCCTCGAGCG
binding result [2]: no binding

B16: consensus mutant position 10 (dsDNA)
DNA 1: GATTTAACAGAA
DNA 2: TTCTGTTAAATC
binding signal [3]: 0.2 fraction of control

B17: consensus mutant position 6 (dsDNA)
DNA 1: GATTTCACATAA
DNA 2: TTATGTGAAATC
binding signal [3]: 0.1 fraction of control
